Reference: PMC5607963

Target: F-actin polymerized from rabbit skeletal muscle G-actin, stabilized with phalloidin (rabbit), P68135
Test: co-sedimentation
Conditions: remark: other sources report otherwise

Kd: 2900 nM
B1: αE-catenin homodimer, P26231 1-906 (natural protein)
chain: MTAVHAGNINFKWDPKSLEIRTLAVERLLEPLVTQVTTLVNTNSKGPSNKKRGRSKKAHVLAASVEQATENFLEKGDKIAKESQFLKEELVVAVEDVRKQGDLMKSAAGEFADDPCSSVKRGNMVRAARALLSAVTRLLILADMADVYKLLVQLKVVEDGILKLRNAGNEQDLGIQYKALKPEVDKLNIMAAKRQQELKDVGNRDQMAAARGILQKNVPILYTASQACLQHPDVAAYKANRDLIYKQLQQAVTGISNAAQATASDDAAQHQGGSGGELAYALNNFDKQIIVDPLSFSEERFRPSLEERLESIISGAALMADSSCTRDDRRERIVAECNAVRQALQDLLSEYMGNAGRKERSDALNSAIDKMTKKTRDLRRQLRKAVMDHVSDSFLETNVPLLVLIEAAKNGNEKEVKEYAQVFREHANKLIEVANLACSISNNEEGVKLVRMSASQLEALCPQVINAALALAAKPQSKLAQENMDLFKEQWEKQVRVLTDAVDDITSIDDFLAVSENHILEDVNKCVIALQEKDVDGLDRTAGAIRGRAARVIHVVTSEMDNYEPGVYTEKVLEATKLLSNTVMPRFTEQVEAAVEALSSDPAQPMDENEFIDASRLVYDGIRDIRKAVLMIRTPEELDDSDFETEDFDVRSRTSVQTEDDQLIAGQSARAIMAQLPQEQKAKIAEQVASFQEEKSKLDAEVSKWDDSGNDIIVLAKQMCMIMMEMTDFTRGKGPLKNTSDVISAAKKIAEAGSRMDKLGRTIADHCPDSACKQDLLAYLQRIALYCHQLNICSKVKAEVQNLGGELVVSGVDSAMSLIQAAKNLMNAVVQTVKASYVASTKYQKSQGMASLNLPAVSWKMKAPEKKPLVKREKQDETQTKIKRASQKKHVNPVQALSEFKAMDSI
